Variants at the floor of the assay were thinned out.
B1: TPR 5TU (parent)
chain: GGAUCUUCUCGAUCUAACAAAAAAGACAAAUCUGCCACAAAGCUUGAGAGCAUCUUCGGAUGCAGAGGCGGCAGCCUUCGGUGGCGCGAUAGCGCCAACGUUCUCAACUAUGACACGCAAAACGCGUGCUCCGUUGAAUGGAGUUUAUCAUG

Variants of: B1
Assay: polymerase ribozyme fitness, log enrichment relative to wild type (log ratio); higher = more active; in vitro selection for triplet polymerase activity
Procedure, shortened: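 Each subunit of a heterodimeric triplet polymerase ribozyme was mutagenized into a library by PCR, transcribed, and subjected to one round of in vitro selection, run in triplicate. Libraries were annealed with a biotinylated primer, the partner subunit and triplets, incubated frozen at −7 °C, and extended constructs were gel-excised, captured on streptavidin beads and recovered by RT-PCR. Input and output libraries were sequenced on Illumina, keeping genotypes with ≥10 input reads and ≥1 read per output. Fitness is log base 2 of genotype enrichment divided by wild-type enrichment, from inverse-variance-weighted replicate averages.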

Question: Which “polymerase ribozyme fitness (log ratio)” value does the source give for GGAUCUUCACGAUCUAACAAAAAAGACAAAUCUGCAACAAAGCUUGAGAGCAUCUUCGGAUGCAGAGGCGGGAGCCUUCGGUGGCGCGAUAACGCCAACGUUCUCAACUAUGACACGCAAAACGCGUGAUCCGUUGUAUGGAGUUUAUCAUG [U9A C36A C72G G92A C129A A137U] here?
Answer: The value was ≤ -4.2.

Question: For GGAUCUUCACGAUCUAACAAAAAAGACAAAUCUGCCACAAAGCUUGAGAGCAUCUUCGGAUGUAGAGGUGGCAGCUUUCGGUGGCGCGAUAGAGCCAACGUUCUCAACUAUGUCACGCAAAACGCGUGCUCCGUUCAAUGGAGUUUAUCAUG [U9A C63U C69U C76U C93A A113U G136C], which “polymerase ribozyme fitness (log ratio)” value is on record?
Answer: Its value is ≤ -4.2.

Question: With GGAUCUUCACGAUCUAACAAAAAAGACAAAUCUGCCACAAAGCUUGAGAGCAUCUUCGGAUGCAGAGGCGGCAGCCUUCGGUGGCGCGAUAGCGCUAACGUUCUCAACUCUGACACGCAAAACGCGUGCUCCGUUGAAUGGAGUUUAUCAUG [U9A C96U A110C] as the variant, how does the “polymerase ribozyme fitness (log ratio)” value read?
Answer: The value was ≤ -4.2.

Question: With GGAUCUUCACGAUCUAACAAAAAAGACAAAUCUGCCACAAUGCUUGAGAGCCUCUUCGGAUUCAGAGGCGGCAGCCUUCGGUGGCGGGGUAGCGUCAACGUUCUCAACUAUGACAAGCAAAACGCGUGCUCCGUUGAAUGGCGUUAAUCCUG [U9A A41U A52C G62U C87G A89G C95U C116A A142C U146A A150C] as the variant, how does the “polymerase ribozyme fitness (log ratio)” value read?
Answer: The value was ≤ -4.2.

Question: Which “polymerase ribozyme fitness (log ratio)” value does the source give for GGAUCUUCACGAUCUAACAAAAAAGACAAAUCUGCCACAAAGCUUGAGAGCAUCUUCGGAUGCAGAGGCGGCAGCCUUCGGUGGAGCGACAGCGCCAACGUUCACAACUAUGACACGCAAAACGCGGGCUCCGUUGAAUAGAGUUUAUCAUG [U9A C85A U90C U104A U127G G140A] here?
Answer: The value was ≤ -4.2.

Question: For GGAUCUUCACGAUCUAACAAAAAAGACAAAUCUGCCACAAAGCUUGAGAGCAUCUUCGGAUGCAGAGGCGGCAGCCUUCGGUGGCGCGAUAGAGCCAACGUUCUCAACUAUGACACGCAAAACGCGUGCUCCGUUGAAUGGAGUUUAUCAUG [U9A C93A], which “polymerase ribozyme fitness (log ratio)” value is on record?
Answer: The value was -3.87.

Question: With GGAUCUUCACGAUCUAACAAAAAAGACAAAUCUGCCACAAAGCUUGAGAGCAUCUUGGGAUGCAGAGGCGGCAGCCUUCGGUGUCGCGAUAGCGCCAACGUUCUCAACUAUGACACGCAAAACGCGUGCUCCGUUGAAUGGAGUUUAUCAUG [U9A C57G G84U] as the variant, how does the “polymerase ribozyme fitness (log ratio)” value read?
Answer: The value was ≤ -4.2.

Question: Which “polymerase ribozyme fitness (log ratio)” value does the source give for GGAUCUUCACGAUCCAACAAAAAAGACAAAUCUGCCACAAAGCUUGAAACCAUCUUCGGAUGCAGAGGCGGCAGCCUUCGGUGGCGCGAUAGCGCAAACGUUCUCAACUAUGACACGCAAAACGCGUGCUCCCUUGAAUGGAGUUUAUCAUG [U9A U15C G48A G50C C96A G133C] here?
Answer: The value was ≤ -4.2.

Question: With GGAUCUUCACGAUAUAACAAAAUAGACAACUCUGCAACAAAGCUUGAGAGCAUCUUCGGAUGCAGAGGCGGCAGCCUUCGGUGGCGCGAUAGCGUCAACGUUCUCAACUUUGACACGCAAAACGCGUGCUCCGUUGAAUGGAGUUUAUCAUG [U9A C14A A23U A30C C36A C95U A110U] as the variant, how does the “polymerase ribozyme fitness (log ratio)” value read?
Answer: Its value is ≤ -4.2.

Question: With GGAUCUUCACGAUCUAACAAAAAAGACAAAUCUGCCACAAAGCUUGAGAACAUCUUCGGAUGCAGAGGCGGCAGCCUUCGGUGGCGCGAUAGCUCCAACGUUCUCAACUAUGACACGCAAAACGCGUGCUCCGUUGAAUGGAGUUUAUCAUG [U9A G50A G94U] as the variant, how does the “polymerase ribozyme fitness (log ratio)” value read?
Answer: The value was ≤ -4.2.

Question: With GGAUCUUCACGAUCUAACAAAAAAGACAAAUCUGCCACAAUGCUUGAGAGCAUCUUCGGAUGCAGAGGCGGCAACCUUCGGUGGCGCGGUAGCGCCAACGUUCUCAACUAUGACACGCAAAACGCGUGCUCUGUUGAAUGGAGUUUAUCAUG [U9A A41U G74A A89G C132U] as the variant, how does the “polymerase ribozyme fitness (log ratio)” value read?
Answer: Its value is ≤ -4.2.

Question: Which “polymerase ribozyme fitness (log ratio)” value does the source give for GGAUCUUCACGAUCUAAGAAAAAAGACAAAUCUGCCACAAAGCUUGAGAGCGUCUUCCGAUGCAGAGGCGGCAGCCUUCGGUGGCGCGAUAGCGCCAACGUUCUCAACUAUGACACGCAAAACGCGUGCUCCGUUGAGUGGAGUUUAUCAUG [U9A C18G A52G G58C A138G] here?
Answer: The value was ≤ -4.2.

Question: With GGAUCUUCACGAUCUAACAAAAAAGACAAAUCUGCCACAAAGCUUGAGAGCAUCUUCGACUGCAGAGGCGGCAGCCUUCGGUGGCGCGAUAGUGCCAACGUUCUCAACUAUGACACGCAAAACGCGUGCUCCGUUGAAUGGAGUUUAUCAUG [U9A G59A A60C C93U] as the variant, how does the “polymerase ribozyme fitness (log ratio)” value read?
Answer: Its value is ≤ -4.2.

Question: For GGAUCUUCACGAUCUAACAAAAAAGACAAAUCUGCCACAAAGAUUGAGAGCAUCUUCGGAUGCAGAGGCGGCAGCCUUCGGUGGCGCGAUAGCGCCAACGUUCUCAACUAUGACACGCAAAACGCGUGCUCCGUUGAAUGGAGUUUUUCAGG [U9A C43A A147U U151G], which “polymerase ribozyme fitness (log ratio)” value is on record?
Answer: Its value is ≤ -4.2.

Question: For GGAUCUUCACGAUCUAACAAAAAAGACAAAUCUACCACAAAGCUUGAGAGCAUCUUAGGAUGCAGAGGCGGCAGCCUUCGGUGGAGCGAUUGCGCCAACGUUCUCAACUAUGACACGCAAAACGCGUGCUCCGUUGAAUGGAGUUUAUCAUG [U9A G34A C57A C85A A91U], which “polymerase ribozyme fitness (log ratio)” value is on record?
Answer: The value was ≤ -4.2.

Question: For GGAUCUUCACGAUCUAACAAAAAAGACAAAUCUGUCACAAAGCUUGAGAGCAUCAUCGGAUGCAGAGGCGGCAGCCUUCGGUGGCGCGAUCGCGCCAACGUUCUCAACUAUGACACGCAAAACGCGUGCUCCGUUGAAUGGAGUUUAUCAUG [U9A C35U U55A A91C], which “polymerase ribozyme fitness (log ratio)” value is on record?
Answer: Its value is ≤ -4.2.

Question: With GGAUCUUCACGAUCUAACAAAAAAGACAAAUCUGCCACAAAGCUUGCGAGCAUCUUCGGAUGCAGAGGCGGCAGCCUUCGGUGGCGCGAUAGCGCCAACGUUCUCAACUAUGACACGCAAAACGCGUGCUCCGUUGAAUGGAGUUUAUCAUG [U9A A47C] as the variant, how does the “polymerase ribozyme fitness (log ratio)” value read?
Answer: Its value is -4.13.

Question: For GGAUCUUCACGAUCUAACAAAAAAUACAAAUCUGCUACAAAGCUUGAGACCAUCUUCGGAUGCAGAGGCGGCAGCCUUCGGUGGCACGAUAGCGCCAACGUUCUCAACUAUGACACGCAAAACGCGUGCUCCGUUGAAUGGAGUUUAUCAUG [U9A G25U C36U G50C G86A], which “polymerase ribozyme fitness (log ratio)” value is on record?
Answer: Its value is ≤ -4.2.

Question: With GGAUCUUCACGAUCUAACAAAAAAGACAAAUCUGCCACAAAGCUUGAGAGCAUCUUCGGAUGCAGAGGCGGCAGCCUUCGGUGGCGCGAUAGCGCCAACGUUCUCAACUAUGACACGCAAAACGCGUGCUCCGUUGAAUGAAGUUUAUCAUG [U9A G141A] as the variant, how does the “polymerase ribozyme fitness (log ratio)” value read?
Answer: Its value is -2.94.

From the RNAGym collection of RNA variant scans (doi:10.1073/pnas.2313332121)
